From patent US20260070940A1 (Hoffmann-La Roche, published 2026) come the findings set out here.

For experiment [1], the target named is T1, human FAP avi his, biotinylated (human, UniProt Q12884 27-759, biotin on the avi-tag).
T1 construct: also called huFAP
Kind of experiment: SPR, bacterial supernatant. (In general: SPR reads the build-up and loss of mass on a sensor chip optically.)
Protocol: (§1) Clones that were identified in the “mix-and-read assay” performed with the Mirrorball instrument were further analyzed by Surface Plasmon Resonance (SPR). The off-rate of selected aVH clones was measured using a ProteOn XPR36 instrument (Biorad) at 25° C. with biotinylated human and murine FAP antigen immobilized on NLC chips by neutravidin capture. Immobilization of recombinant antigens (ligand): Antigens were diluted with PBST (10 mM phosphate, 150 mM sodium chloride pH 7.4, 0.005% Tween 20) to 10 μg/ml, then injected at 30 μl/minute at varying contact times, to achieve immobilization levels of 400, 800 or 1600 response units (RU) in vertical orientation. Injection of analytes: Injection direction was changed to horizontal orientation and 5 individual aVH-containing supernatants that were diluted 1:3 with PBST were injected simultaneously at 60 μl/min along separate channels 1-5, with association times between 120 and 180s, and dissociation times of 600s. Diluted bacterial supernatant without aVH was injected along the sixth channel to provide an “in-line” blank for referencing. Dissociation rate constants (koff) were calculated using the “koff-rate” calculation in ProteOn Manager v3.1 software.

Experiment [2] has as its target T2, murine FAP avi his, biotinylated (murine, UniProt P97321 27-761, biotin on the avi-tag).
T2 construct: also called muFAP; mu FAP
The experiment is described as follows: SPR, bacterial supernatant.
Protocol: as §1

The target of experiment [3] is T1, human FAP avi his, biotinylated. Kind of experiment: SPR, purified aVH, FAP immobilised.
Experiment [4] addresses T2, murine FAP avi his, biotinylated. Kind of experiment: SPR, purified aVH, FAP immobilised.
In experiment [5] the target is T3, soluble human Lag3-IgG1-Fc with biotinylated C-terminal Avi-tag (human, biotin on the Avi-tag).
T3 construct: Lag3 ECD, IEGRMD linker, IgG1 Fc, Avi-tag; also called LAG3-Fc-avi; biotinylated LAG3-Fc
T3 sequence (chain, as listed by the source limits assumed): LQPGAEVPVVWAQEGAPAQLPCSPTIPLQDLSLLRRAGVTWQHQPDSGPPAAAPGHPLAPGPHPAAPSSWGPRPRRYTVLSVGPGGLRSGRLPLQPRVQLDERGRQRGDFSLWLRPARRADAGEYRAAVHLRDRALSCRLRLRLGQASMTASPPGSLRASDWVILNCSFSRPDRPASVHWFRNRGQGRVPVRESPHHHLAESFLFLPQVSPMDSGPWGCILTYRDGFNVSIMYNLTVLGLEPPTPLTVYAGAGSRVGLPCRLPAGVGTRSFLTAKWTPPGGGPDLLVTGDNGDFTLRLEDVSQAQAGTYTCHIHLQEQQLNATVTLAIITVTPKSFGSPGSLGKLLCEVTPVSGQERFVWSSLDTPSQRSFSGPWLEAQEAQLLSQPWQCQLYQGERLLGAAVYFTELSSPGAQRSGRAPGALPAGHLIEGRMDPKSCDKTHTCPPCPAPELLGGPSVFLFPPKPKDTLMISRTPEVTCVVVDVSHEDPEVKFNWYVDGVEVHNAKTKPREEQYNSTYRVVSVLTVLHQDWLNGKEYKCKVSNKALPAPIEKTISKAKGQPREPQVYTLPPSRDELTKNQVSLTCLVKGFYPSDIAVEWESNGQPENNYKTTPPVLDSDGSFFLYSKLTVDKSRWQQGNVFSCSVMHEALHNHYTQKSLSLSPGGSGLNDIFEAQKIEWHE
Kind of experiment: SPR, LAG3-Fc immobilised.

Experiment [6] concerns the target T3, soluble human Lag3-IgG1-Fc with …. The experiment is described as follows: ELISA, supernatant on biotinylated antigen. A general note: An ELISA detects its analyte on a solid surface through an enzyme-linked reagent.
The target in experiment [7] is T4, hu(NA1)BA-avi-His, biotinylated (human, biotin on the avi-tag).
T4 construct: CEACAM5 domains N and A1 followed by two CEACAM1 Ig domains, avi-tag and his-tag; also called CEA antigen; chimera of CEACAM5 domains N and A1 on CEACAM1
T4 chain: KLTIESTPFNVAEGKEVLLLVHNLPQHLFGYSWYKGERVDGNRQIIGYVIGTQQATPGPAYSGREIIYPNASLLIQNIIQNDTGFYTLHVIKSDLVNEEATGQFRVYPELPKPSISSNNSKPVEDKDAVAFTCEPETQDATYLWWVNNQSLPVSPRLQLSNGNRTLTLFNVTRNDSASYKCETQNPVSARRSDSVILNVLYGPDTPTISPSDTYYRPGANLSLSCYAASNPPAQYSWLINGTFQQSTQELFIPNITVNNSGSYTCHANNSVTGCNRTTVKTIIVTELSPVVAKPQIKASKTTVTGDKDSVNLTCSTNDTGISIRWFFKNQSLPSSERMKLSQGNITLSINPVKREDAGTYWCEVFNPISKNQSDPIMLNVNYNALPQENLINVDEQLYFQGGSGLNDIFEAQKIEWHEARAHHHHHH
Kind of experiment: SPR, purified aVH.
Protocol: CEACAM1-avi-his was again used as a negative control Immobilization of recombinant antigens (ligand): Antigen was diluted with PBST (10 mM phosphate, 150 mM sodium chloride pH 7.4, 0.005% Tween 20) to 10 μg/ml, then injected at 30 μl/minute at varying contact times, to achieve immobilization levels of 200, 400 or 800 response units (RU) in vertical orientation. […] Buffer (PBST) was injected along the sixth channel to provide an “in-line” blank for referencing. Association rate constants (kₒₙ) and dissociation rate constants (koff) were calculated using a simple one-to-one Langmuir binding model in ProteOn Manager v3.1 software by simultaneously fitting the association and dissociation sensorgrams. The equilibrium dissociation constant (KD) was calculated as the ratio koff/kₒₙ.

Experiment [8] deals with T4, hu(NA1)BA-avi-His, biotinylated. The experiment is described as follows: SPR, bacterial supernatant.
Protocol: The off-rate of selected aVH clones was measured using a ProteOn XPR36 instrument (Biorad) at 25° C. with biotinylated hu(NA1)BA-avi-His immobilized on NLC chips by neutravidin capture. CEACAM1-avi-his was used as a negative control. Immobilization of recombinant antigens (ligand): Antigens were diluted with PBST (10 mM phosphate, 150 mM sodium chloride pH 7.4, 0.005% Tween 20) to 10 μg/ml, then injected at 30 μl/minute at varying contact times, to achieve immobilization levels of 400, 800 or 1600 response units (RU) in vertical orientation. Injection of analytes: Injection direction was changed to horizontal orientation and 5 individual aVH-containing supernatants that were diluted 1:3 with PBST were injected simultaneously at 60 μl/min along separate channels 1-5, with association times between 120 and 180s, and dissociation times of 800s. Diluted bacterial supernatant without aVH was injected along the sixth channel to provide an “in-line” blank for referencing. Dissociation rate constants (koff) were calculated using the “koff-rate” calculation in ProteOn Manager v3.1 software.
Experiment [9] has as its target T5, full-length human CEA with N-terminal SNAP tag on transfected HEK293 cells (human, UniProt P06731 35-685, SNAP tag labelled with terbium).
T5 construct: whole, on cells; also called hu CEA-SNAP; CEACAM5
T5 sequence (looked up): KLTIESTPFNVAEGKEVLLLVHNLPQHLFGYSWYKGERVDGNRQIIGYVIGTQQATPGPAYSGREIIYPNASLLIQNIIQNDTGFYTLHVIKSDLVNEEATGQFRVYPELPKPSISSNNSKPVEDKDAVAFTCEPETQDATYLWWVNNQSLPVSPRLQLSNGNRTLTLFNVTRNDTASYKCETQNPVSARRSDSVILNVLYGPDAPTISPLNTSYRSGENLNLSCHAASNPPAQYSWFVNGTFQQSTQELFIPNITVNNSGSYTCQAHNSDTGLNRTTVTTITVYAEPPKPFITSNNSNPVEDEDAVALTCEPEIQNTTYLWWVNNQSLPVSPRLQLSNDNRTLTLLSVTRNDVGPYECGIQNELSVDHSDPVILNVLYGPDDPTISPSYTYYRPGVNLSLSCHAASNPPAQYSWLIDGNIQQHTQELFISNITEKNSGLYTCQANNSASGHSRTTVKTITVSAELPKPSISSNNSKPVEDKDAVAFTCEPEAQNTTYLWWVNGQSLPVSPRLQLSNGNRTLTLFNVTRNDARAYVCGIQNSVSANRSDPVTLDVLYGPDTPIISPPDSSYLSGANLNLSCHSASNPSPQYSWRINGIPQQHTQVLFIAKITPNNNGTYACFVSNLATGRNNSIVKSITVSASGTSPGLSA
Kind of experiment: FRET (TagLite) on hu CEA-SNAP cells.
Protocol: Binding of a selected set of purified aVH binders to their epitope on CEA-expressing cells was determined by Fluorescence Resonance Energy Transfer (FRET) analysis. For this analysis, the DNA sequence encoding for the SNAP Tag (plasmid purchased from Cisbio) was amplified by PCR and ligated into an expression vector, containing the full length human CEA sequence. The resulting fusion protein was comprised of full-length CEA with an N-terminal SNAP tag. HEK293 cells were transfected with 10 μg DNA using Lipofectamine 2000 as transfection reagent. After an incubation time of 20 h, cells were washed with PBS and incubated for 1 h at 37° C. in LabMed buffer (Cisbio) containing 100 nM SNAP-Lumi4Tb (Cibsio), leading to specific labeling of the SNAP Tag. Subsequently, cells were washed 4 times with LabMed buffer to remove unbound dye. […] Cells were then stored frozen at −80° C. for up to 6 months. Binding was measured by adding CEA-specific aVH binders at a concentration ranging from 0.005 up to 100 nM to labeled cells (100 cells per well) followed by addition of d2-labeled anti-his tag antibody (Cisbio, final concentration was 200 nM per well) as acceptor molecule for the FRET. […] The ratio of acceptor to donor emission was calculated and the ratio of the background control (cells only incubated with anti-his tag antibody) subtracted. Curves were analysed in GraphPad Prism5 (FIG. 9) and KDs calculated (Table 26).

B1: anti-FAP aVH P034.090 (VHH)
VHH: EVQLVESGGGLVQPGGSLRLSCAASGFNIKDTCIGWVRRAPGKEEELVANICSSYGHTRYADSVKGRFTISADTSKNTAYLQMNSLRAEDTAVYYCASSYTIYRYSYWGQGTTVTVSS
In general, koff refers to a measure of how fast the partners let go of each other. Low readings indicate slow dissociation, high ones fast dissociation. In general, Kd refers to the free concentration of one partner at which half of the binding sites on the other are occupied at equilibrium, for simple one-to-one binding. Read a low Kd as tighter binding. As a reminder, the kon is the second-order rate constant of association. As to B1, the koff came out at 0.00107 s⁻¹ in experiment [1], 0.0255 s⁻¹ in [2] and 0.00046 s⁻¹ in [3]. This molecule came in with a Kd in experiment [3] of 0.846 nM. This molecule yielded a kon in [3] of 552000 M⁻¹ s⁻¹.

B2: anti-FAP aVH P047.001 (VHH)
VHH: EVQLVESGGGLVQPGGSLRLSCAASGFNIKDTCIGWVRRAPGKEEELVANICGKIGITRYADSVKGRFTISADTSKNTAYLQMNSLRAEDTAVYYCANSYTIVRYDYWGQGTTVTVSS
Consider B2, for which the koff in experiment [1] amounted to 0.00542 s⁻¹; in [2], 0.0157 s⁻¹; in experiment [3], 0.00133 s⁻¹; in experiment [4] it was 0.00784 s⁻¹. The Kd in [3] turned out to be 1.15 nM; in experiment [4], 24.5 nM. In addition, the association rate constant (kon) in experiment [3] amounted to 1.15e+06 M⁻¹ s⁻¹; in experiment [4], 320000 M⁻¹ s⁻¹.

B3: LAG3 P10D1 aVH (VHH)
VHH: EVQLVESGGGLVQPGGSLRLSCAASGFSIKDTCIAWVRRAPGKGTELVAEICEDIGYTRYADSVKGRFTISADTSKNTAYLQMNSLRAEDTAVYYCAAKEAGVGFDYWGQGTTVTVSS
notes: also called P110D1
In [5], B3 gave a dissociation constant Kd of 27 nM, a koff of 0.00383 s⁻¹ and a kon of 144000 M⁻¹ s⁻¹.

B4: LAG3 9B4 aVH (VHH)
VHH: EVQLVESGGGLVQPGGSLRLSCAASGFNIKDTCIGWVRRAPGKGTELVAEICQDIGYTRYADSVKGRFTISADTSKNTAYLQMNSLRAEDTAVYYCAAVEVAEYFEYWGQGTTVTVSS
In experiment [5], B4 registered a Kd of 86 nM, a koff of 0.00314 s⁻¹ and an on-rate (kon) of 36500 M⁻¹ s⁻¹.

B5: SEQ ID NO 91 (VHH)
VHH: EVQLVESGGGLVQPGGSLRLSCAASGFNIKDTCIGWVRRAPGKGTELVAEICHDIGYTRYADSVKGRFTISADTSKNTAYLQMNSLRAEDTAVYYCAAEEHVASFEYWGQGTTVTVSS
notes: also called LAG3-specific aVH
Consider B5, for which the binding result in experiment [6] is “binds”.

B6: SEQ ID NO 79 (VHH)
VHH: EVQLVESGGGLVQPGGSLRLSCAASGFNIKDTCIGWVRRAPGKGTELVAEICQDIGYTRYADSVKGRFTISADTSKNTAYLQMNSLRAEDTAVYYCAADESVDNFKYWGQGTTVTVSS
notes: also called LAG3-specific aVH
With B6, in [6], the binding result is “binds”.

B7: SEQ ID NO 89 (VHH)
VHH: EVQLVESGGGLVQPGGSLRLSCAASGFNIKDTCIGWVRRAPGKGTELVAEICTDAGYTRYADSVKGRFTISADTSKNTAYLQMNSLRAEDTAVYYCAASESPSGFRYWGQGTTVTVSS
notes: also called LAG3-specific aVH
Consider B7, for which the binding result in experiment [6] is on record as “binds”.

B8: SEQ ID NO 97 (VHH)
VHH: EVQLVESGGGLVQPGGSLRLSCAASGFNIKDTCIGWVRRAPGKGTELVAEICDDIGYTRYADSVKGRFTISADTSKNTAYLQMNSLRAEDTAVYYCASQEHQWSFKYWGQGTTVTVSS
notes: also called LAG3-specific aVH
With B8, the binding result in [6] is on record as “binds”.

B9: SEQ ID NO 83 (VHH)
VHH: EVQLVESGGGLVQPGGSLRLSCAASGFNIKDTCIGWVRRAPGKGTELVAEICEDIGYTRYADSVKGRFTISADTSKNTAYLQMNSLRAEDTAVYYCAANEHSVGFNYWGQGTTVTVSS
notes: also called LAG3-specific aVH
Turning to B9, the binding result in experiment [6] was “binds”.

B10: SEQ ID NO 95 (VHH)
VHH: EVQLVESGGGLVQPGGSLRLSCAASGFNIKYQCIGWVRRAPGKGTELVAEICSYDGYTRYADSVKGRFTISADTSKNTAYLQMNSLRAEDTAVYYCAAEESVEGFIYWGQGTTVTVSS
notes: also called LAG3-specific aVH
Consider B10, for which, in experiment [6], the binding result is recorded as “binds”.

B11: SEQ ID NO 77 (VHH)
VHH: EVQLVESGGGLVQPGGSLRLSCAASGFNIKDTCIGWVRRAPGKGTELVAEICTDIGYTRYADSVKGRFTISADTSKNTAYLQMNSLRAEDTAVYYCAAGEGSSGFHYWGQGTTVTVSS
notes: also called LAG3-specific aVH
In the case of B11, in experiment [6], the binding result was “binds”.

B12: SEQ ID NO 85 (VHH)
VHH: EVQLVESGGGLVQPGGSLRLSCAASGFNIKDTCIGWVRRAPGKGTELVAEICQDIGYTRYADSVKGRFTISADTSKNTAYLQMNSLRAEDTAVYYCAGEEGATNFKYWGQGTTVTVSS
notes: also called LAG3-specific aVH
B12: the binding result in [6] is “binds”.

B13: LAG3 P11A2 aVH (VHH)
VHH: EVQLVESGGGLVQPGGSLRLSCAASSFNIKDTYIGWVRRAPGKGTELVAEIACHEGTTRYADSVKGRFTISCDTSKNTAYLQMNSLRAEDTAVYYCANTEYDDIFDYWGQGTTVTVSS
In [5], B13 gave a Kd of 55 nM, a koff of 0.0138 s⁻¹ and an association rate constant (kon) of 251000 M⁻¹ s⁻¹.

B14: anti-FAP aVH P049.004 (VHH)
VHH: EVQLVESGGGLVQPGGSLRLSCAASSFNIKDTYIGWVRRAPGKEEELVANIYCNYGYTRYADSVKGRFTISCDTSKNTAYLQMNSLRAEDTAVYYCATSHTRYHYKYWGQGTTVTVSS
On to B14, for which the koff in experiment [1] worked out at 0.00508 s⁻¹. The molecule also returned a koff in [2] of 0.00207 s⁻¹. In experiment [4], binding was put at a Kd of 23 nM, the koff was 0.00102 s⁻¹ and the kon came to 51000 M⁻¹ s⁻¹.

B15: anti-CEA aVH P123.065 (VHH)
VHH: EVQLVESGGGLVQPGGSLRLSCAASGFNIKDSSTYIGWVRRAPGKEEELVASISCSRGNTRYADSVKGRFTISCDTSKNTAYLQMNSLRAEDTAVYYCAHPRYTWYDYWGQGTTVTVSS
For the molecule B15, the Kd in experiment [7] is 89.1 nM; in experiment [9] it was 190 nM. Further, the koff in experiment [8] is 0.0278 s⁻¹.
